Experiment [1] has as its target HER2 (HER2/c-erb-2 gene product) on SKBR3 cells (UniProt P04626). In words: FACS on SKBR3 cells, one site specific binding fit.
Experiment [2] has the same target. In words: FACS on SKBR3 cells, Alexa 647 Protein L detection, one site specific binding fit (column head prints 'SKBR3 Cell Binding IC50, nM').

Consider scFv-Fc (-1) pN3F DBCO-MMAF (Fc fusion), for which the Kd (in general, the equilibrium constant for the complex coming apart) in experiment [1] worked out at 0.0068 µM.

Consider “trastuzumab scFv (VL_VH) with pN3F at position (-1), conjugated to DBCO-MMAF”, for which the Kd in experiment [2] is 0.014 µM.
